Where a chain is given by its changes, count along the chain named. Blank lines part the entries; values can stand above or below the binder they belong to.
Molecular target: T1, CD123 (Homo sapiens (Human), UniProt P26951 19-305, limits assumed)
T1 construct: The CD123 construct used in the ELISA is not described; also called CD123-Signal
T1 sequence: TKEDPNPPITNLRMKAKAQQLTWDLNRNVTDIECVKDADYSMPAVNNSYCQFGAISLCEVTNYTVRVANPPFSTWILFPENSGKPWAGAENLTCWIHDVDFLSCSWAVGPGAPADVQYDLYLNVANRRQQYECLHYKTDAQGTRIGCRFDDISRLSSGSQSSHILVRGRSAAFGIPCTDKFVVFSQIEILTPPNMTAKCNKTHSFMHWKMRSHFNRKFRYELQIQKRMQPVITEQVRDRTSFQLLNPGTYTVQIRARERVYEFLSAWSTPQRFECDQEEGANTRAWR
Test: ELISA
Parameters: unit not given here

B5: D domain of SEQ ID NO: 467 (designed binder)
chain: MGSWFYFKDDLADINYMLEALGGSEAELAMFEDDIAGFELTLLKYKGKGNPEVEALRKEAAAIRDELQAYRHN
- ELISA_avg: 3.7

B6: D domain of SEQ ID NO: 432 (designed binder)
chain: MGSWFEFWERLDAIEWRLWALGGSEAELAAFEKEIAAFESELQAYKGKGNPEVEELRSTAADIRRYLQAYRHN
- ELISA_avg: 3.4

B7: D domain of SEQ ID NO: 465 (designed binder)
chain: B6 chain with W8Y, E15N, W19F, E55A, S58G, T59E, D62A, R65E, Y66D
- ELISA_avg: 3

B9: D domain of SEQ ID NO: 472 (designed binder)
chain: MGSWQWFKDDLAYIKETLEALGGSEAELALFEDMIADFEFELQWYKGKGNPEVEALRKEAAAIRDELQAYRHN
- ELISA_avg: 6.3

B12: D domain of SEQ ID NO: 468 (designed binder)
chain: MGSWHFFKDDLAWIKNELEALGGSEAELAMFEDDIAMFETMLQSYKGKGNPEVEALRKEAAAIRDELQAYRHN
- ELISA_avg: 3.2

B13: D domain of SEQ ID NO: 469 (designed binder)
chain: B12 chain with F6W, D9T, W13D, N16E, M37E, T40E, M41F, S44M
- ELISA_avg: 3.5

B15: D domain of SEQ ID NO: 466 (designed binder)
chain: MGSWNEFEDRLDAIWWRLFALGGSEAELAAFEKEIAAFESELQAYKGKGNPEVEALRVEAAFIRTMLQAYRHN
- ELISA_avg: 5.1

B16: D domain of SEQ ID NO: 474 (designed binder)
chain: MGSWIVFKDDLADIKRWLEALGGSEAELAMFEDEIADFEWQLQDYKGKGNPEVEALRKEAAAIRDELQAYRHN
- ELISA_avg: 3.9

B17: D domain of SEQ ID NO: 470 (designed binder)
chain: MGSWWLFKDDLAEIKYWLEALGGSEAELAFFEDDIAEFERGLQIYKGKGNPEVEALRKEAAAIRDELQAYRHN
- ELISA_avg: 3.3

B18: D domain of SEQ ID NO: 473 (designed binder)
chain: B16 chain with V6L, D13W, R16E, W17T, M30F, E34N, W40E, D44G
- ELISA_avg: 6

B20: D domain of SEQ ID NO: 482 (designed binder)
chain: B16 chain with I5T, V6Y, R16Q, M30F, D33I, D37E, W40E, Q41E, D44E
- ELISA_avg: 4.6

B21: D domain of SEQ ID NO: 471 (designed binder)
chain: B17 chain with W5Y, L6E, Y16E, D33L, E37D, R40W, G41L, I44L
- ELISA_avg: 3.8

B26: D domain of SEQ ID NO: 431 (designed binder)
chain: MGSWSEFEHRLEAIESRLFALGGSEAELAAFEKEIAAFESELQAYKGKGNPEVEDLRSEAAWIREQLQAYRHN
- ELISA_avg: 7.6

B27: D domain of SEQ ID NO: 433 (designed binder)
chain: B6 chain with E9G, D12E, W16S, W19K, S58E, T59H, D62W, R65A
- ELISA_avg: 4.9

B28: D domain of SEQ ID NO: 434 (designed binder)
chain: MGSWQEFTMRLDAIYNRLETLGGSEAELAAFEKEIAAFESELQAYKGKGNPEVEWLRQSAANIRSELQAYRHN
- ELISA_avg: 13.7

B35: D domain of SEQ ID NO: 428 (designed binder)
chain: MGSWVEFEERLWAIDERLGALGGSEAELAAFEKEIAAFESELQAYKGKGNPEVEWLRDWAADIRWWLQAYRHN
- ELISA_avg: 4.1

B36: D domain of SEQ ID NO: 426 (designed binder)
chain: B35 chain with V5W, E16Y, G19H, W55M, D58S, D62E, W65A, W66L
- ELISA_avg: 4.1

B37: D domain of SEQ ID NO: 425 (designed binder)
chain: B35 chain with V5T, E8W, W12N, G19F, D58L, W59Y, D62E, W65S, W66E
- ELISA_avg: 4

B38: D domain of SEQ ID NO: 429 (designed binder)
chain: B35 chain with W12E, D15E, G19F, W59D, D62N, W65H
- ELISA_avg: 3.8

Next, values leading:

- ELISA_avg: 3.3
B1: D domain of SEQ ID NO: 490 (designed binder)
chain: MGSWNSFKDELAEIKAELEALGGSEAELAFFEEDIAWFEEHLQQYKGKGNPEVEALRKEAAAIRDELQAYRHN

- ELISA_avg: 3.4
B2: D domain of SEQ ID NO: 491 (designed binder)
chain: B1 chain with N5D, S6L, D9W, A16L, E17G, F30E, E33Y, H41D, Q44D

- ELISA_avg: 3.8
B3: D domain of SEQ ID NO: 486 (designed binder)
chain: MGSWSFFKEELANIQVYLEALGGSEAELAWFEEDIADFEEDLQHYKGKGNPEVEALRKEAAAIRDELQAYRHN

- ELISA_avg: 3.4
B4: D domain of SEQ ID NO: 487 (designed binder)
chain: B1 chain with N5E, S6F, D9Y, E13D, A16D, F30W, W37T, H41W, Q44G

- ELISA_avg: 4.5
B8: D domain of SEQ ID NO: 476 (designed binder)
chain: MGSWGYFKDDLAWIKGELEALGGSEAELAEFEWFIAVFEEDLQVYKGKGNPEVEALRKEAAAIRDELQAYRHN

- ELISA_avg: 10.4
B10: D domain of SEQ ID NO: 477 (designed binder)
chain: B8 chain with G5Y, Y6W, W13E, E17L, W33D, F34E, E40Q, D41E, V44E

- ELISA_avg: 7.6
B11: D domain of SEQ ID NO: 494 (designed binder)
chain: MGSWVTFKDELADIKDFLEALGGSEAELAFFEVDIAEFEAELQFYKGKGNPEVEALRKEAAAIRDELQAYRHN

- ELISA_avg: 4.9
B14: D domain of SEQ ID NO: 475 (designed binder)
chain: B12 chain with H5G, F6H, D9Q, N16D, E17T, M30F, T40M, M41E, S44D

- ELISA_avg: 3.9
B19: D domain of SEQ ID NO: 481 (designed binder)
chain: B17 chain with W5T, L6F, D9N, Y16D, F30D, D33W, R40Y, G41S, I44E

- ELISA_avg: 4
B22: D domain of SEQ ID NO: 493 (designed binder)
chain: B17 chain with W5H, D9W, D10T, W17E, F30W, E37T, R40E, G41E, I44W

- ELISA_avg: 8.8
B23: D domain of SEQ ID NO: 480 (designed binder)
chain: B11 chain with T6F, E10D, F17E, V33I, D34A, E37L, A40W, F44E

- ELISA_avg: 3.9
B24: D domain of SEQ ID NO: 483 (designed binder)
chain: B16 chain with I5T, D9Y, R16W, M30D, D33E, D37E, W40E, Q41E, D44E

- ELISA_avg: 7
B25: D domain of SEQ ID NO: 479 (designed binder)
chain: MGSWTFFKEDLAGIKWELEALGGSEAELAWFEDEIALFEEELQEYKGKGNPEVEALRKEAAAIRDELQAYRHN

- ELISA_avg: 3.2
B29: D domain of SEQ ID NO: 478 (designed binder)
chain: B25 chain with T5M, G13D, E17A, W30F, D33E, E40Q, E41H, E44Q

- ELISA_avg: 3.3
B30: D domain of SEQ ID NO: 484 (designed binder)
chain: MGSWYWFKQDLAHIKSMLEALGGSEAELAWFEEDIADFESELQEYKGKGNPEVEALRKEAAAIRDELQAYRHN

- ELISA_avg: 4.8
B31: D domain of SEQ ID NO: 485 (designed binder)
chain: B25 chain with E9W, G13D, W16A, E17N, D33E, E34D, I35L, L37G, E40A

- ELISA_avg: 9.4
B32: D domain of SEQ ID NO: 489 (designed binder)
chain: B1 chain with N5Y, S6W, D9E, E13F, A16W, F30L, W37Y, H41M, Q44E

- ELISA_avg: 5.5
B33: D domain of SEQ ID NO: 488 (designed binder)
chain: B25 chain with T5Q, F6T, E9D, D10E, G13H, D33W, E34D, L37N

- ELISA_avg: 3.8
B34: D domain of SEQ ID NO: 492 (designed binder)
chain: B30 chain with Y5I, W6F, H13E, S16L, M17N, E33D, D37W, E41H, E44D

From US20250026849A1 (ARCELLX, published 2025)
